Results reported in patent US20250243286A1 (SIXPEAKS BIO, published 2025).
Read-outs that look alike come from different tables or passages of the source.

T1: human ActRIIB (human, UniProt Q13705 19-137, limits assumed)
T1 construct: antigen in MSD-SET; also called ACVR2B; ActR2B
T1 sequence: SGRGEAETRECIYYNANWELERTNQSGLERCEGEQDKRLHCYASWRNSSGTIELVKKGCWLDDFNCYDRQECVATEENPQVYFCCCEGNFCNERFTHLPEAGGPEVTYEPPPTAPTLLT


Tests used:
[1] = biological target: T2, ActRIIA and ActRIIB (on TGFB/SMAD SBE Reporter HEK293 cells) (human); experiment: cell-based or functional assay
[2] = biological target: T2, ActRIIA and ActRIIB (on TGFB/SMAD SBE …); experiment: cell-based or functional assay; remark: listed apart in the source
[3] = biological target: T2, ActRIIA and ActRIIB (on TGFB/SMAD SBE …); experiment: cell-based or functional assay; remark: listed apart in the source
[4] = biological target: T2, ActRIIA and ActRIIB (on TGFB/SMAD SBE …); experiment: cell-based or functional assay; remark: listed apart in the source
[5] = biological target: T2, ActRIIA and ActRIIB (on TGFB/SMAD SBE …); experiment: cell-based or functional assay; remark: listed apart in the source
[6] = biological target: T2, ActRIIA and ActRIIB (on TGFB/SMAD SBE …)
[7] = biological target: T2, ActRIIA and ActRIIB (on TGFB/SMAD SBE …); remark: listed apart in the source
[8] = biological target: T1, human ActRIIB; experiment: MSD-SET
[9] = biological target: T3, human ActRIIA (human, UniProt P27037 20-135, limits assumed); experiment: MSD-SET
T3 construct: antigen in MSD-SET; also called ACVR2A; ActR2A
T3 sequence (P27037 20-135 limits assumed): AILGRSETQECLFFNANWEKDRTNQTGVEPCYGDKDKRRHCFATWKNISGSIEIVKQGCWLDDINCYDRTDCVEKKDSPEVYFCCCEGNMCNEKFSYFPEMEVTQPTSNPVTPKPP

[10] = biological target: T1, human ActRIIB; experiment: MSD-SET; remark: listed apart in the source
[11] = biological target: T3, human ActRIIA; experiment: MSD-SET; remark: listed apart in the source
[12] = biological target: T1, human ActRIIB; experiment: MSD-SET; remark: listed apart in the source
[13] = biological target: T1, human ActRIIB; experiment: MSD-SET; remark: listed apart in the source
[14] = biological target: mouse ActRIIA (mouse, UniProt P27038 20-135, limits assumed); experiment: MSD-SET
Sequence of mouse ActRIIA (P27038 20-135 limits assumed): as the sequence (P27037 20-135 limits assumed) above, with K20R, V73I counted along it

[15] = biological target: Pig ActRIIA (pig, UniProt F1S0H6 20-135); experiment: MSD-SET
[16] = biological target: T1, human ActRIIB; experiment: MSD-SET, preliminary
[17] = biological target: T3, human ActRIIA; experiment: MSD-SET; remark: listed apart in the source
[18] = biological target: T1, human ActRIIB; experiment: MSD-SET; Fab, not IgG
[19] = biological target: T3, human ActRIIA; experiment: MSD-SET; remark: listed apart in the source
[20] = biological target: T1, human ActRIIB; experiment: MSD-SET; human ActRIIB; full-length IgG (Table 4B)
[21] = biological target: T1, human ActRIIB; experiment: MSD-SET, Fab KD over IgG KD

| IC50, Activin SMAD RGA [4] | IC50, Myostatin SMAD RGA [5] | IC90, Activin SMAD RGA [5] | IC90, Myostatin SMAD RGA [5] | IC50 (read off the curve); Activin-stimulated SMAD reporter gene assay [6] | IC50 (read off the curve); Myostatin-stimulated SMAD reporter gene assay [7] | Kd [9] | IC50, Myostatin SMAD RGA [4] | Kd [11] | IC50, Activin SMAD RGA [5] | IC50 fold difference (Fab:IgG), Activin SMAD RGA [4] | IC50 fold difference (Fab:IgG), Myostatin SMAD RGA [4] | Kd [18] | further results | Binder |
| --- | --- | --- | --- | --- | --- | --- | --- | --- | --- | --- | --- | --- | --- | --- |
| 0.5 nM | 0.56 nM | 9.38 nM | 13.5 nM | 0.3 nM | 0.4 nM | – | – | – | – | – | – | – | IC50, Myostatin SMAD RGA [1]: 0.292 nM; IC50 [nM] (assay not given) [2]: 0.294 nM; IC90 [nM] (assay not given) [2]: 6.57 nM; IC50, Activin SMAD RGA [3]: 0.32 nM; IC95, Activin SMAD RGA [3]: 19.6 nM; IC99, Activin SMAD RGA [3]: 206 nM; IC50, myostatin inhibition (SMAD RGA) [5]: 0.292 nM; IC50 [nM] (assay not given) [5]: 0.517 nM; IC90 [nM] (assay not given) [5]: 8.07 nM; IC95, Activin SMAD RGA [5]: 37.9 nM; IC95, Myostatin SMAD RGA [5]: 55.2 nM; IC99, Activin SMAD RGA [5]: 829 nM; IC99, Myostatin SMAD RGA [5]: 2680 nM | Bimagrumab (antibody, V domains shown) VH: QVQLVQSGAEVKKPGASVKVSCKASGYTFTSSYINWVRQAPGQGLEWMGTINPVSGSTSYAQKFQGRVTMTRDTSISTAYMELSRLRSDDTAVYYCARGGWFDYWGQGTLVTVSS VL: QSALTQPASVSGSPGQSITISCTGTSSDVGSYNYVNWYQQHPGKAPKLMIYGVSKRPSGVSNRFSGSKSGNTASLTISGLQAEDEADYYCGTFAGGSYYGVFGGGTKLTVL |
| 0.43 nM | 0.513 nM | 3.82 nM | 4.63 nM | 0.3 nM | 0.7 nM | 0.029 nM | 0.48 nM | 0.029 nM | 0.347 nM | – | – | – | Kd [8]: 0.008 nM; Kd [10]: 0.008 nM | Antibody Fasnetsküchla (antibody, V domains shown, full-length IgG) VH: QVQLVQSGAEVKKPGASVKVSCKASGYTFTSSYINWVRQAPGQGLEWMGTINAVSGSTSYAQKFQGRVTMTRDTSISTAYMELSRLRSDDTAVYYCARGGWFDYWGQGTLVTVSS VL: QSALTQPASVSGSPGQSITISCTGTSSDVGSANYVNWYQQHPGKAPKPMIYGVSRRPSGVSNRFSGSKSGNTASLTISGLQAEDEADYYCGTFAGGKYYGVFGGGTKLTVL |
| – | – | – | – | – | – | – | – | – | – | – | – | – | Kd [12]: 0.0033 nM; Kd [13]: 0.002 nM; Kd [14]: 0.018 nM; Kd [15]: 0.01 nM; Kd [16]: 0.0253 nM | Ofaschlupfer Fab (Fab, V domains shown, Fab) VH: QVQLVQSGAEVKKPGSSVKVSCKASGYTFTSSYINWVRQAPGQGLEWMGTINAVSGSTSYAQKFQGRVTITADTSTSTAYMELSSLRSEDTAVYYCARGGWFDYWGQGTLVTVSS VL: QSALTQPRSVSGSPGQSVTISCTGTSSDVGSKNYVNWYQQHPGKAPKLMIYGVSKRESGVPDRFSGSKSGNTASLTISGLQAEDEADYYCGTFAGGKYYGVFGGGTKLTVL |
| 0.09 nM | 0.213 nM | 1.58 nM | 9.65 nM | 0.2 nM | 0.2 nM | 0.042 nM | 0.15 nM | 0.041 nM | 0.0582 nM | – | – | – | Kd [8]: 0.005 nM; Kd [10]: 0.005 nM; IC50 [nM] (assay not given) [5]: 0.0209 nM; IC50 fold difference to bimagrumab (assay not given) [5]: 25.6 fold; IC90 [nM] (assay not given) [5]: 1.27 nM; IC90 fold difference to bimagrumab (assay not given) [5]: 6.33 fold; Fold Difference to bimagrumab [17]: 4 fold; Kd [17]: 0.041 nM | Antibody Rippla (antibody, V domains shown, full-length IgG; also called Ripp1a) VH: QVQLVQSGAEVRKPGASVKVSCKASGYTFTSSYINWVRQAPGQGLEWMGTINPVSGSTSYAQKFQGRVTMTRDTSISTAYMELSRLRSDDTAVYYCARGGWFDYWGQGTLVTVSS VL: QSALTQPASVSGSPGQSITISCTGTSSDVGSYNRVNWYQQHPGKAPKLMIYGVSKRESGVSNRFSGSKSGNTASLTISGLQAEDEADYYCGTFAGGRYYGVFGGGTKLTVL |
| 6.19 nM | – | – | – | – | – | 0.047 nM | 7.85 nM | – | – | 20.5 fold | 20.2 fold | 0.36 nM | – | Duuranad Fab (Fab, V domains shown, Fab) VH: QVQLVQSGAEVKKPGASVKVSCKASGYTFTSSYINWVRQAPGQGLEWMGTINAVSGSTSYAQKFQGRVTMTRDTSISTAYMELSRLRSDDTAVYYCARGGWFDYWGQGTLVTVSS VL: QSALTQPASVSGSPGQSITISCTGTSSDVGSFNYVNWYQQHPGKAPKLMIRGVSKRESGVSNRFSGSKSGNTASLTISGLQAEDEADYYCGTFAGGAYYGVFGGGTKLTVL |
| 9.9 nM | – | – | – | – | – | 0.125 nM | 13.4 nM | – | – | 33.8 fold | 40.7 fold | 0.823 nM | – | Wurschdsalat Fab (Fab, V domains shown, Fab) VH: QVQLVQSGAEVKKPGASVKVSCKASGYTFTSSYINWVRQAPGQGLEWMGTINAVSGSTSYAQKFQGRVTMTRDESISTAYMELSRLRSDDTAVYYCARGGWFDYWGQGTLVTVSS VL: QSALTQPASVSGSPGQSITISCTGTSSDVGSYNYVNWYQQHPGKAPKLMIYGVSKRESGVSNRFSGSKSGNTASLTISGLQAEDEADYYCGTFAGGKYYGVFGGGTKLTVL |
| 4.06 nM | – | – | – | – | – | 0.091 nM | 3.7 nM | – | – | 31.5 fold | 14.2 fold | 0.228 nM | – | Hefaknöpfla Fab (Fab, V domains shown, Fab) VH: QVQLVQSGAEVKKPGASVKVSCKASGYTFTSSYINWVRQAPGQGLEWMGTINAVSGSTSYAQKFQGRVTMTRDTSISTAYMELSRLRSDDTAVYYCARGGWFDYWGQGTLVTVSS VL: QSALTQPASVSGSPGQSITISCTGTSSDVGSKNYVNWYQQHPGKAPKLMIYGVSKRESGVSNRFSGSKSGNTASLTISGLQAEDEADYYCGTFAGGKYYGVFGGGTKLTVL |
| 0.14 nM | 0.263 nM | 2.14 nM | 2.18 nM | – | – | 0.014 nM | 0.33 nM | 0.014 nM | 0.134 nM | – | – | – | IC50 [nM] (assay not given) [2]: 0.0371 nM; IC50 fold difference to bimagrumab (assay not given) [2]: 7.96 fold; IC90 [nM] (assay not given) [2]: 1.6 nM; IC90 fold difference to bimagrumab (assay not given) [2]: 4.11 fold; Fold Difference to bimagrumab [19]: 10 fold; Kd [19]: 0.014 nM; Kd [20]: 0.004 nM | Antibody Riaba (antibody, V domains shown, full-length IgG) VH: QVQLVQSGAEVKKPGASVKVSCKASGYTFTSSYINWVRQAPGQGLEWMGTINAVSGSTSYAQKFQGRVTMTRDTSISTAYMELSRLRSDDTAVYYCARGGWFDYWGQGTLVTVSS VL: QSALTQPASVSGSPGQSITISCTGTSSDVGSYNYVNWYQQHPGKAPKLMIYGVSKRDSGVSNRFSGSKSGNTASLTISGLQAEDEADYYCGTFAGGKYYGVFGGGTKLTVL |
| 27.9 nM | – | – | – | – | – | – | 64.6 nM | – | – | 196 fold | 199 fold | 1.57 nM | Fold difference (Fab:IgG) [21]: 369 fold | Riaba Fab (Fab, V domains shown, Fab) VH: QVQLVQSGAEVKKPGASVKVSCKASGYTFTSSYINWVRQAPGQGLEWMGTINAVSGSTSYAQKFQGRVTMTRDTSISTAYMELSRLRSDDTAVYYCARGGWFDYWGQGTLVTVSS VL: QSALTQPASVSGSPGQSITISCTGTSSDVGSYNYVNWYQQHPGKAPKLMIYGVSKRDSGVSNRFSGSKSGNTASLTISGLQAEDEADYYCGTFAGGKYYGVFGGGTKLTVL |
